{"source": "patent US20100016547A1", "about": "“Glycosilated Peptide and Medicine Comprising It as an Effective Ingredient” (priority 2005, published 2010)", "key": {"GLP-1 receptor [1]": {"target": "GLP-1 receptor"}, "GLP-1 receptor [2]": {"target": "GLP-1 receptor", "remark": "listed apart in the source"}}, "note": "pIC50: −log10 of the molar value.", "data": [{"substance": "EX (peptide)", "values": [{"measurement": "EC50 (cAMP assay)", "setting": "GLP-1 receptor [1]", "result": 0.55, "unit": "nM"}, {"measurement": "pIC50", "setting": "GLP-1 receptor [2]", "result": 10.00}]}]}
